Where two headings read alike, the source gives them in different places.
Key:
[1] = target: T1, human HER2 receptor (human, UniProt P04626); experiment: ELISA on human HER2 receptor, purified VHH titrated, A450
[2] = target: T1, human HER2 receptor; experiment: as above; remark: listed apart in the source
[3] = target: T1, human HER2 receptor; experiment: as above; remark: listed apart in the source
[4] = target: T1, human HER2 receptor; experiment: ELISA specificity panel on ErbB family receptors, VHH titrated, A450
[5] = target: T1, human HER2 receptor; experiment: as above; remark: listed apart in the source
[6] = target: T1, human HER2 receptor; experiment: as above; remark: listed apart in the source
[7] = target: T1, human HER2 receptor; experiment: ELISA on human HER2 receptor, purified VHH titrated, A450; remark: listed apart in the source
[8] = target: T1, human HER2 receptor; experiment: as above; remark: listed apart in the source
[9] = target: T1, human HER2 receptor; experiment: as above; remark: listed apart in the source
[10] = target: T1, human HER2 receptor; experiment: as above; remark: listed apart in the source
[11] = target: T1, human HER2 receptor; experiment: as above; remark: listed apart in the source

B1: VHH_123 (VHH)
VHH: QVQLVESGGGLVQAGGSLRLSCAASGRTFNSYFYTMAWFRQAPGKEREFVARMNWNADSTYHADSVKGRFTISRENTVYLQMNSLEPEDTAVYYCAAKSISAPKYDYWGQGTQVTVSS
notes: also called VHH ID 123
B1: no binding [1].

B2: VHH_107 (VHH)
VHH: QVQLVESGGGLVQPGGSLRLSCAASGSIFSINVMGWYRQAPGMQRQLVAIITSGGSTNYADSVKGRFTVSRDNAKNTLYLRMNSLKPEDTAVYYCATIHVRESTWYYAYWGQGTQVTVSS
notes: also called VHH ID 107
With B2 the “EC50 (read off the curve)” value [2] was roughly 3 nM.

B3: VHH_108 (VHH)
VHH: QVQLVESGGGLVQAGGSLRLSCAASGRTFSSYAMGWFRQAPGLEREFVAAIARGGVSTGYADSVKGRFAISRDNAKNMVYLQMNSLKPEDTAVYYCATYFWGSPHYWGQGTQVTVSS
notes: also called VHH ID 108
With B3 the “EC50 (read off the curve)” value [3] was roughly 6 nM.

B4: VHH_130 (VHH)
VHH: EVQLVESGGGLVQAGGSLRLSCAASGITFSINTMGWYRQAPGKQRELVALISSIGDTYYADSVRGRFTISRDNAKNTVYLQMNSLKPEDTAVYYCRRFRTAAQGTDYWGQGTQVTVSS
notes: also called VHH ID 130
With B4 the “EC50 (read off the curve)” value [4] was roughly 1 nM, the “EC50 (read off the curve)” value [5] was roughly 1 nM and the “EC50 (read off the curve)” value [6] was roughly 1 nM.

B5: VHH_129 (VHH)
VHH: EVQLVESGGGLVQAGGSLRLSCAASGITFSINTMGWYRQAPGKQRELVALISSIGDTYYADSVKGRFTISRDNAKNTVYLQMNSLKPEDTAVYYCRRFRTAAQGTDYWGQGTQVTVSS
notes: also called VHH ID 129
In the case of B5, the “EC50 (read off the curve)” value [7] is reported as roughly 1 nM.

B6: VHH_134 (VHH)
VHH: EVQLVESGGGLVQAGGSLRLSCAASGITFSINTMGWYRQAPGKQRELVALISSIGDTYYADSVRGRFTISRDNARNTVYLQMNSLRPEDTAVYYCRRFRTAAQGTDYWGQGTQVTVSS
notes: also called VHH ID 134
B6 was tested, and the “EC50 (read off the curve)” value [8] was roughly 1 nM.

B7: VHH_109 (VHH)
VHH: QVQLVESGGGLVQPGGSLRLSCEASGFTFDDYGMSWVRQAPGKGLEWVSGITWNGGNPNYADSVKGRFTISRDNAKRTLYLQMNSLKAEDTAVYYCQRGYSRGYMYWGQGTQVTVSS
notes: also called VHH ID 109
With B7 the “EC50 (read off the curve)” value [9] was roughly 10 nM.

B8: VHH_110 (VHH)
VHH: QVQLVESGGGSVQLGGSLRLSCAVSGLGFSALAMGWFRQAPGKERERVAAISRTGGTTYYTDSVKGRFTISRDNGKNMVYLQMNSLKPEDAAVYYCASRYTALLSTTARGYDYWGQGTQVTVSS
notes: also called VHH ID 110
B8: no binding [10].

B9: VHH_118 (VHH)
VHH: EVQLVESGGGLVQPGGSLRLSCAASEFTFSNYAMSWVRQAPGKGLEWVSAINWSGGITTYADSVKGRFTISRDNAKNTLHLQMNSLKPEDTAVYYCAKGWGTTTRDTGLLSQGTLVTVSS
notes: also called VHH ID 118
For B9, the “EC50 (read off the curve)” value [11] was roughly 6 nM.
